According to the supplement of paper PMC9170038:

Test system: MS2 coat protein
Experiment: apparent KD of MS2 coat protein; designed switch direction (-1 OFF switch, 1 ON switch): -1; higher = weaker reporter binding
In short: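 RNA switches sharing common flanks were transcribed by stalled E. coli RNA polymerase on Illumina chips. A doubling series of SNAP-549-labelled MS2 coat protein, from 0.7 or 1.5 nM to 3 µM, was applied in Tris-HCl pH 7.5 buffer with KCl, MgCl2, BSA, DTT, tRNA and Tween-20. Each step lasted 0.8–1.5 h at the bottom of the series and 10–20 min at the top. Normalised cluster fluorescence was curve-fitted, giving apparent KD as the per-design median over clusters.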

[1] = Eterna round: R95, input ligand: microRNA oligo, concentration not stated
[2] = Eterna round: R95, input ligand: FMN 200 uM
[3] = Eterna round: R95, input ligand: none
[4] = input ligand: microRNA oligo, concentration not stated

Row | Sequence | apparent KD of MS2 coat protein (input ligand: FMN 200 uM) | apparent KD of MS2 coat protein (input ligand: none) | apparent KD of MS2 coat protein [1] | apparent KD of MS2 coat protein [2] | apparent KD of MS2 coat protein [3] | apparent KD of MS2 coat protein [4]
1 | CCGAUGUGAGGAUAUACACUAGGGUGCGUAUACGUGAGCAAACAUGAGGAUCACCCAUGUAGAAGGCACUGAAA [Eternabot (Original) Solution 50] (Eterna round: R97, puzzle: Exclusion 2) | 117 nM | 30.9 nM |  |  |  | 
2 | CCGCAAAAGCAGGAUAUCGUAUCGGAUACGAUACGAGAAGGGUUUACAUGAGGAUCACCCAUGUUCCUUAGCGG [Fiskers Ex 6 - 32] (puzzle: Exclusion 6) |  |  | 26.8 nM |  |  | 
3 | CCGCAUAAGCAGGAUAUCGUAUCGGAGACGAUACGAGAAGGGUUAACAUGAGGAUCACCCAUGUUCCUUAACGG [Mat - Exclusion 6 - Eli Mod - D99] (puzzle: Exclusion 6) |  |  | 14.1 nM | 19.7 nM | 18.1 nM | 
4 | CCGCCAUGAGGAUAUCCAUCUGGAUCAGACAAGAUCCUGAUGGAGAAGGGACAUGAGGAUCACCCAUGUUGCGG [Mat - Exclusion 4 - Eli Mod - D55] (Eterna round: R97, puzzle: Exclusion 4) | 60.4 nM | 60 nM |  |  |  | 
5 | CCGCCGCAAGGAUAUACUUGCGGUGAUGUUCGAGUUCUUCUACUUGAGGAUCACCCAAGUAGAAGGUGCAAAAC [jl-ex2.4.59 ViennaUCT mod] (Eterna round: R97, puzzle: Exclusion 2) | 13 nM | 12.5 nM |  |  |  | 
6 | CCGCUCCGUGUAGGAUAUCGCUGUACCCUGCGGCGAGAAGGACAUGAGGAUCACCCAUGUAUGUUAUUAUCACGCGUGGCGCAC [Design 72] (Eterna round: R96, puzzle: Exclusion NG 1) | 16 nM | 16.4 nM |  |  |  | 12.4 nM
7 | CCGCUCCGUGUAGGAUAUUGGCGUGCUCUGCGCCGAGAAGGACAUGAGGAUCACCCAUGUAUGUUAUUAUCACGCGUGGCGCAU [Design 78] (Eterna round: R96, puzzle: Exclusion NG 1) | 30.6 nM | 18.6 nM |  |  |  | 11.5 nM
8 | CCGGAAGUACAGGAUAUAGGAGUCGAUAGACUCCUAGAAGGGUAUACAUGAGGAUCACCCAUGUGUCCUACCGG [Fiskers Ex 6 - 71] (puzzle: Exclusion 6) |  |  | 23.6 nM |  |  | 
9 | CCGGGCCCGGGAGGAUAUACAUGAGGAUCACCCAUGUGGGCCCGGGCCCGCGGGCCCGGGCCCAUGUAGAAGGCCCGGGCCCGG [-64.8, -64.2 kcal, A 15%] (Eterna round: R96, puzzle: Exclusion NG 2) | 50 nM | 20.4 nM |  |  |  | 36.4 nM
10 | CCGGGCGCAGGAUAUACGUGGCCCAAAUAAAUAAUAACCACACAUGAGGAUCACCCAUGUAGAAGGGCGCCCGG [-26.59, -25.61 kcal, A 32%] (Eterna round: R97, puzzle: Exclusion 2) | 116 nM | 49.9 nM |  |  |  | 
11 | CCGGUAGUAGUCAGGAUAUUCGAUUUUCACCAAGCGAAGAAGGGACAUGAGGAUCACCCAUGUUAGGUGAACGG [Eternabot (L2) Solution 68] (Eterna round: R97, puzzle: Brourd's mod of Exclusion 4) | 196 nM | 37.6 nM |  |  |  | 
12 | CCGUCCUCAGUUAGGAUAUCUUCCGGAGAACGAAAGGAGAAGGAACAUGAGGAUCACCCAUGUGGCCCGAUGGA [Eternabot (Original) Solution 16] (Eterna round: R97, puzzle: Brourd's mod of Exclusion 4) | 85.3 nM | 29.3 nM |  |  |  | 
13 | CCGUGGCAAGGAUAUACGUAGGAGAGGAAGGCAAGAGAAGGACAUGAGGAUCACCCAUGUAGAAGGUGCAGAUC [JR_Exclu2_Sub030] (puzzle: Exclusion 2) |  |  | 48.3 nM |  |  | 
14 | CCUAGUUGGUAAGGAUAUCCUACAUUAUUCUGACCCGUGCAAGCUACAUGAGGAUCACCCAUGUGGGAGAAGGUGCGUUAACGU [Design 8] (Eterna round: R96, puzzle: Exclusion NG 2) | 55.7 nM | 55.1 nM |  |  |  | 35.2 nM
15 | CCUCAGUAAGGAUAUCAGCUUAUAAGGUUGGUAAUGAGAGCUGAGAAGGUACAUGAGGAUCACCCAUGUUAGUU [JL Zatite mod 6] (puzzle: Exclusion 4) |  |  | 26.7 nM |  |  | 
16 | CCUCAGUAAGGAUAUCAGCUUAUAGAGUUGGUAAUGAGAGCUGAGAAGGUACAUGAGGAUCACCCAUGUUAGUU [JL Zatite mod 3] (puzzle: Exclusion 4) |  |  | 23.5 nM |  |  | 
17 | CCUCCCGCCGUCAGGAUAUGCCGUACCGCUGCGCUACAGAAGGCACUUGAGGAUCACCCAAGUACCCGUGAGGC [salish99_bmod_ex4_r4_010] (Eterna round: R97, puzzle: Brourd's mod of Exclusion 4) | 16.5 nM | 15.7 nM |  |  |  | 

Row | Sequence | apparent KD of MS2 coat protein (input ligand: FMN 200 uM) | apparent KD of MS2 coat protein (input ligand: none) | apparent KD of MS2 coat protein [1] | apparent KD of MS2 coat protein [2] | apparent KD of MS2 coat protein [3] | apparent KD of MS2 coat protein [4]
18 | CCUCGACAUGAGGAUCACCCAUGUGAGGAUAUGACCUUAAAAGCGUGAGCAGUUUCUAUCAGAAGGCGCGUAGG [salish99_ex1_r4_071] (Eterna round: R97, puzzle: Exclusion 1) | 15.9 nM | 16 nM |  |  |  | 
19 | CCUCUACAUGAGGAUCACCCAUGUGAGGAUAUCAAAGCCGAAGCAAAUCUCCGGCCCAUGAGAAGGUGCAUGGA [EX1 A.9] (Eterna round: R97, puzzle: Exclusion 1) | 87.4 nM | 19.5 nM |  |  |  | 
20 | CCUCUGUUAGGAUAUGGCAAAGAUGAGACACACCGACAUUGUUAGAAGGGACAUGAGGAUCACCCAUGUCAGCG [Eternabot (L1) Solution 57] (Eterna round: R97, puzzle: Exclusion 4) | 22.8 nM | 21.4 nM |  |  |  | 
21 | CCUCUUGGGCAAGGAUAUCCUGCGCGGUUCCGGCUCGUGUCUGUCACAUGAGGAUCACCCAUGUGGGAGAAGGUGCCUGCGGUC [Design 79] (Eterna round: R96, puzzle: Exclusion NG 2) | 16.3 nM | 16.5 nM |  |  |  | 11.8 nM
22 | CCUGAGGUUUGGUAGAAAACAUGAGGAUCACCCAUGUAUGUGCAGGAUAUCGACCGGCUCGCUGCCGAGAAGGGCAUCUACAUA [Eternabot solution 31] (Eterna round: R96, puzzle: Exclusion NG 3) | 45.4 nM | 36.9 nM |  |  |  | 24.8 nM
23 | CCUGUGCUAUAGGAUAUGGCUUAGCAAUAUGCGCCAGAAGGAUAGACAUGAGGAUCACCCAUGUACGACGAAGC [Eternabot (L2) Solution 65] (Eterna round: R97, puzzle: Exclusion 6) | 35.9 nM | 24.3 nM |  |  |  | 
24 | CCUUGACAUGAGGAUCACCCAUGUGAGGAUAUAGAAUACAUCAUACACUGACCUCCUUCUAGAAGGCACAUCUC [1986#2] (Eterna round: R97, puzzle: Exclusion 1) | 14.1 nM | 15.3 nM |  |  |  | 
25 | CCUUUGUCAGGAUAUCAGAACACGCUCCUAGGGAGCGCAAAUGAGAAGGGACAUGAGGAUCACCCAUGUAAAGA [Arisesat] (puzzle: Exclusion 4) |  |  | 41.6 nM | 318 nM | 54.8 nM | 
26 | CGAAGUAGAAACCGAUCCUACAUGAGGAUCACCCAUGUAGCAAGACGUGCACGCGAAGCUCGUCAGACUACCAGAAU [salish99_TOv1_r3_015] (puzzle: Sensor v3, turn-off variant 1) |  |  | 257 nM | 212 nM | 430 nM | 
27 | CGACAGGGAGGAUAUACAUGAGGAUCACCCAUGUUCAAGCGUCCUUGAACUACCUCUGGUAGAAGGCCCUAAAG [jl-ex3-4.67 ViennaUCT mod] (Eterna round: R97, puzzle: Exclusion 3) | 44.6 nM | 123 nM |  |  |  | 
28 | CGACUGUGAGGAUAUGGUGAGUAGUGCCUGAGCGCUGCUCACCAGAAGGCACAUGAGGAUCACCCAUGUAUGAC [Mat - Exclusion 4 - Mod of JL - D8] (puzzle: Exclusion 4) |  |  | 72.8 nM |  |  | 
29 | CGAGCUGCUGUGAGGAUAUACCUAUGGAUACGUGGGUAGAAGGCACAUGAGGAUCACCCAUGUCCUGCAGCUCG [salish99_bmx4_r4_102] (Eterna round: R97, puzzle: Brourd's mod of Exclusion 4) | 313 nM | 51.7 nM |  |  |  | 
30 | CGAGUGUAAGGAUAUUCGGCACCAGAGAACGAUCUGGCGUAGAAGAAGGUACAUGAGGAUCACCCAUGUGGUUA [Atonte] (puzzle: Exclusion 4) |  |  | 114 nM |  |  | 
31 | CGAUAAUCCAAGGAUAUGCUAGACGAAAGUCUAGCAGAAGGUGGAACAUGAGGAUCACCCAUGUGUCCAAAUCG [Mat - Exclusion 6 - Eli Mod - D27] (Eterna round: R97, puzzle: Exclusion 6) | 22.2 nM | 14.7 nM |  |  |  | 
32 | CGAUGAGGAGUGAGGAUAUCGUGUUCGAAAGAACGUGAGAAGGCACAUGAGGAUCACCCAUGUGAUUCUUGUCG [Omei Ex4B A18] (Eterna round: R97, puzzle: Brourd's mod of Exclusion 4) | 77.6 nM | 22.2 nM |  |  |  | 
33 | CGAUGCUCGAGUCCACAUGAGGAUCACCCAUGUCGAGUUAGCGAGGAUAUCGGAGACACAUAGUAUGAGAAGGCGCGAACCUGA [Ex NG3 #20] (Eterna round: R96, puzzle: Exclusion NG 3) | 10 nM | 13.6 nM |  |  |  | 11.3 nM
34 | CGAUGCUCGUGGCCACAUGAGGAUCACCCAUGUCGAGUUAGCGAGGAUAUCGGUAGCACAUAUCACGAGAAGGCGCGAACCUGA [Ex NG3 #29] (Eterna round: R96, puzzle: Exclusion NG 3) | 32.3 nM | 12 nM |  |  |  | 10.9 nM
